The source of these data is patent US20150258192A1, “COMPOSITIONS AND METHODS FOR PREVENTING OR TREATING CHRONIC LUNG ALLOGRAFT DYSFUNCTION (CLAD) AND IDIOPATHIC PULMONARY FIBROSIS (IPF)” (priority 2014, published 2015).

No end group written: not given here.

What all share (assay): Kinase Profiling Assay
What all share (type): biochemical
What all share (details): peptide 100 μM

One test has as its target T1, NEK2(h) (Homo sapiens, UniProt P51955).
T1 construct: purchased Millipore
T1 sequence (P51955 1-445): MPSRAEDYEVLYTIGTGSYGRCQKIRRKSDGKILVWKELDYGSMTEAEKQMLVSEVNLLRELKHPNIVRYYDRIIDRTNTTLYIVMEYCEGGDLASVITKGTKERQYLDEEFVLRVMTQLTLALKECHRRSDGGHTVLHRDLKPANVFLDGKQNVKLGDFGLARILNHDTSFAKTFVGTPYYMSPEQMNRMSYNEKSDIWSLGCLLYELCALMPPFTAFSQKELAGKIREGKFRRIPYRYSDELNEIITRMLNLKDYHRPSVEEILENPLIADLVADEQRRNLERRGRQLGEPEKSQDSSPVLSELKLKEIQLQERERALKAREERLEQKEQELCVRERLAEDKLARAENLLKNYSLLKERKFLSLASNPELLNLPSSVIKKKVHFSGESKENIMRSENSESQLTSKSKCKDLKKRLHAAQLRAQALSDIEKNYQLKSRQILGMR
The method, boiled down:
(§1)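 In this 266-kinase specificity panel, every measurement was duplicated. Transfer of labeled phosphate from ATP to a cationic substrate was quantified after the substrate adhered to an anionic filter membrane and was scintillation-counted, then related to a full-activity control.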

For the next test, the target named is T2, Rsk4(h) (Homo sapiens, UniProt Q9UK32).
T2 construct: purchased Millipore
T2 sequence (Q9UK32 whole entry): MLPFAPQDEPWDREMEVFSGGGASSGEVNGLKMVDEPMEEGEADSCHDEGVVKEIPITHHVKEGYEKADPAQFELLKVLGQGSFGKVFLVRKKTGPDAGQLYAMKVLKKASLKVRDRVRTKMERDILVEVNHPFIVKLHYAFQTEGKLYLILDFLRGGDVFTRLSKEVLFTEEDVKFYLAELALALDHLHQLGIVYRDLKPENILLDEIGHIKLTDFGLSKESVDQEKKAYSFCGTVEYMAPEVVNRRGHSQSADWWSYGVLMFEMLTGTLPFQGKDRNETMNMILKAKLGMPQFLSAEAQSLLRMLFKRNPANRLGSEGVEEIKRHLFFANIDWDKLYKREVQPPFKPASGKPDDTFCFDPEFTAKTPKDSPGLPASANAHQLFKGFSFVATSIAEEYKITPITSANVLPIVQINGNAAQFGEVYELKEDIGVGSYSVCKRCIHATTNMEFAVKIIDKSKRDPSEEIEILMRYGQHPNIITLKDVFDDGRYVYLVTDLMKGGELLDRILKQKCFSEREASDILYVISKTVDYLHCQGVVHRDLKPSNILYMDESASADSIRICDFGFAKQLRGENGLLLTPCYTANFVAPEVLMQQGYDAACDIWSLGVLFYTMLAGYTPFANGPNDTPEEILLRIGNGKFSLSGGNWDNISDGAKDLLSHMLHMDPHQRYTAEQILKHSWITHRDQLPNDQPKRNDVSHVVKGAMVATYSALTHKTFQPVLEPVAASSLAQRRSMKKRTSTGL
The method, boiled down:
as §1

For a further test, the target named is Flt4(h) (Homo sapiens, UniProt P35916). An outline of the steps: as §1
Chain of Flt4(h) (P35916 25-1363): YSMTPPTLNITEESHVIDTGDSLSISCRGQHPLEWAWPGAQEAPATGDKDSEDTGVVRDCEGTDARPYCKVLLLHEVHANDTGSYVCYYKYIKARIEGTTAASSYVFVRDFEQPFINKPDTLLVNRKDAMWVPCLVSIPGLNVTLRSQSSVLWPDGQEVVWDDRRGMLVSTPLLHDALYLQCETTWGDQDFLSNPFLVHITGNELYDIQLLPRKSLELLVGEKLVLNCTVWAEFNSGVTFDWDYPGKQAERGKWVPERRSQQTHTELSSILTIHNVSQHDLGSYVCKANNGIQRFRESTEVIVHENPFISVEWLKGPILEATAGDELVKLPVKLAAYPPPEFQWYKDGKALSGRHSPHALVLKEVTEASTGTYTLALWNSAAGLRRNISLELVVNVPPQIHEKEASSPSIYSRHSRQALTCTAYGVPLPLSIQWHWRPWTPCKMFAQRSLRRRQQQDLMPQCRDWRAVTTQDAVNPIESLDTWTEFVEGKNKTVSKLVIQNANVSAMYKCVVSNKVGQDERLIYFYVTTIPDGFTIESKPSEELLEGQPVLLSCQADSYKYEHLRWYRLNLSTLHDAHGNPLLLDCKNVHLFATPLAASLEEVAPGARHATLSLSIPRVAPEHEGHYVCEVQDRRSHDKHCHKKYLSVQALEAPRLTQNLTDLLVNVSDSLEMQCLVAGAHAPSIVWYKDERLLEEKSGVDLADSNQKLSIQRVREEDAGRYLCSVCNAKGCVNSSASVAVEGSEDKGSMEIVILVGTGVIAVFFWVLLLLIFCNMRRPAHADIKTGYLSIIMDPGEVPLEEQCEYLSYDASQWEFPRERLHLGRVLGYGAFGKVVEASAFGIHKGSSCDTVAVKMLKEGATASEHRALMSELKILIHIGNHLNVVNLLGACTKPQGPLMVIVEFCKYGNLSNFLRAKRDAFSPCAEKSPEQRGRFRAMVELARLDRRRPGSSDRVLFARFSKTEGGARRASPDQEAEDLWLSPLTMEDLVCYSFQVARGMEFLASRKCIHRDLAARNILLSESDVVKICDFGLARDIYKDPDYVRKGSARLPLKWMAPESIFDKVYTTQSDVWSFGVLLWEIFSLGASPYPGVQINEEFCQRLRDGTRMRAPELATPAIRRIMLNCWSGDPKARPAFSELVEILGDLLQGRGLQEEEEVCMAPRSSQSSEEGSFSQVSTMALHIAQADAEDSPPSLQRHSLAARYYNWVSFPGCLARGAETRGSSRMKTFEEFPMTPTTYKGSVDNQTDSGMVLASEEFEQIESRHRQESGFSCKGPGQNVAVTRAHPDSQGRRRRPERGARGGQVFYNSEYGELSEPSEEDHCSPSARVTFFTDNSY
The target of the next test is Ret(h) (Homo sapiens, UniProt P07949). An outline of the steps:
as §1

The target of the next test is T3, MKK6(h) (Homo sapiens, UniProt P52564).
T3 construct: purchased Millipore
T3 sequence (P52564 1-334): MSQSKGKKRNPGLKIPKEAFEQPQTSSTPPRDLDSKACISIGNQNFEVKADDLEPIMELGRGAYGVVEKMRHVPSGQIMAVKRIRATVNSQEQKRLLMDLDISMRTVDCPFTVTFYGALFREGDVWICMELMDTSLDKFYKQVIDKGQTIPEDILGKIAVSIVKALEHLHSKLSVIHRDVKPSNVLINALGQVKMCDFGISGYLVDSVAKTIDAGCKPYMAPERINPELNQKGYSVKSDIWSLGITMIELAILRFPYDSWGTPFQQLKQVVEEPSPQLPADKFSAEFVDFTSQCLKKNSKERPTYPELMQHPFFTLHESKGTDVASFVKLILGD
The method, boiled down: as §1

Another test has as its target T4, PhKγ2(h) (Homo sapiens, UniProt P15735).
T4 sequence (P15735 1-406): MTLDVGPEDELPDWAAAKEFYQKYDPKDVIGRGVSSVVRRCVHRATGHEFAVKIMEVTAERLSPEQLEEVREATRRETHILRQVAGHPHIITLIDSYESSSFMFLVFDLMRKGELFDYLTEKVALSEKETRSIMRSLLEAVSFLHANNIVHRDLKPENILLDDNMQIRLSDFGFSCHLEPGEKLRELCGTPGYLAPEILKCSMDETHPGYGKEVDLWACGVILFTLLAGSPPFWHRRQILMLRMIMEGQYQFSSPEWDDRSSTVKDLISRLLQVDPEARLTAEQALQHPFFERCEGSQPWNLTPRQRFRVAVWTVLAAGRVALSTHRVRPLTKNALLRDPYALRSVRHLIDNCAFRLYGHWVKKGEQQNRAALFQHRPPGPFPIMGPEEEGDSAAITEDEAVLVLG
An outline of the steps: as §1

A further test concerns the target T5, Met(M1268T)(h) (Homo sapiens, UniProt P08581, M1250T).
T5 construct: purchased Millipore
An outline of the steps:
as §1

A further test concerns the target Pyk2(h) (Homo sapiens, UniProt Q14289). An outline of the steps: as §1
The target in another test is T6, MARK1(h) (Homo sapiens, UniProt Q9P0L2).
T6 construct: purchased Millipore
T6 sequence (Q9P0L2 whole entry): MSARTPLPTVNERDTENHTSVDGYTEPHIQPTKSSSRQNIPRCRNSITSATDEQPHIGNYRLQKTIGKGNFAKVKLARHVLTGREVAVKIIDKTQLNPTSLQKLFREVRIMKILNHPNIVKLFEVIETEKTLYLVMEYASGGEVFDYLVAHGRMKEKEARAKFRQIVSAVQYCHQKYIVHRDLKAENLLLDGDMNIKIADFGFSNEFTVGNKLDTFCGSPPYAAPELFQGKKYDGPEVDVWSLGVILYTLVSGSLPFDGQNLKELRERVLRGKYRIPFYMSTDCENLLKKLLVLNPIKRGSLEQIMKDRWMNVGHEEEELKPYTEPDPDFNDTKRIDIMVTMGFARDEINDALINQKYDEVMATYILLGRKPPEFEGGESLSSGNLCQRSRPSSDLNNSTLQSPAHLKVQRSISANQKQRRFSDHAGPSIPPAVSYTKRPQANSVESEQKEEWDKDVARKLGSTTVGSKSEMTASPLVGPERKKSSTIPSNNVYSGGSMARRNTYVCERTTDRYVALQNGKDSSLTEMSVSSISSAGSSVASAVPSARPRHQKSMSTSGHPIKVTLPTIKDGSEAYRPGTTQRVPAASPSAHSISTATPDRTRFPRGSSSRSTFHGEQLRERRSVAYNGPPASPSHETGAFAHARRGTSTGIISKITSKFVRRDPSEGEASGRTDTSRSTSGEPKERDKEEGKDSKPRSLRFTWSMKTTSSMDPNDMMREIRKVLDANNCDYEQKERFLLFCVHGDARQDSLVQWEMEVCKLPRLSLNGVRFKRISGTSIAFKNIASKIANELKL
An outline of the steps: as §1

In the next test the target is T7, PKCε(h) (Homo sapiens, UniProt Q02156).
T7 sequence (Q02156 1-737): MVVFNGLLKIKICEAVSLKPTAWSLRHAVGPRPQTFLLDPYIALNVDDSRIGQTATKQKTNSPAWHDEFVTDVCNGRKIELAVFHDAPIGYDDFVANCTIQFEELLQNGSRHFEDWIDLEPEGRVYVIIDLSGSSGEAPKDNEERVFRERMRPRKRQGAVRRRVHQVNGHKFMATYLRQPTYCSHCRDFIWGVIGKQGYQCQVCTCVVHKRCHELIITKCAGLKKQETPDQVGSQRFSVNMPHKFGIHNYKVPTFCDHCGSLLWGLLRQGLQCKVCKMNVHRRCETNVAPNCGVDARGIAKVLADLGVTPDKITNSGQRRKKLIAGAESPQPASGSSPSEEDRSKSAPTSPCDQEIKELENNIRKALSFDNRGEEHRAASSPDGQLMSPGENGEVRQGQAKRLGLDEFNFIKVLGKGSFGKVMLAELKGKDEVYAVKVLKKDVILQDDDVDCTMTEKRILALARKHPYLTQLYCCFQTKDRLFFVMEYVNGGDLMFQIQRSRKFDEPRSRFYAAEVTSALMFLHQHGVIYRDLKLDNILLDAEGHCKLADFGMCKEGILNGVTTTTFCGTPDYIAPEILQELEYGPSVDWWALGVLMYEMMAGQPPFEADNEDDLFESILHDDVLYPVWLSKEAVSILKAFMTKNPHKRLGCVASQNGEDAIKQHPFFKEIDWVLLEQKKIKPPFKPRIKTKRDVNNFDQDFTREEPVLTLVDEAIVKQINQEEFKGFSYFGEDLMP
The method, boiled down: as §1

The target of another test is CaMKIIδ(h) (Homo sapiens, UniProt Q13557). An outline of the steps:
as §1

A further test addresses CaMKI(h) (Homo sapiens, UniProt Q14012). An outline of the steps:
as §1

The target of the next test is T8, Met(Y1248D)(h) (Homo sapiens, UniProt P08581, Y1230D).
T8 construct: purchased Millipore
An outline of the steps: as §1

Chain of Pyk2(h) (Q14289 whole entry): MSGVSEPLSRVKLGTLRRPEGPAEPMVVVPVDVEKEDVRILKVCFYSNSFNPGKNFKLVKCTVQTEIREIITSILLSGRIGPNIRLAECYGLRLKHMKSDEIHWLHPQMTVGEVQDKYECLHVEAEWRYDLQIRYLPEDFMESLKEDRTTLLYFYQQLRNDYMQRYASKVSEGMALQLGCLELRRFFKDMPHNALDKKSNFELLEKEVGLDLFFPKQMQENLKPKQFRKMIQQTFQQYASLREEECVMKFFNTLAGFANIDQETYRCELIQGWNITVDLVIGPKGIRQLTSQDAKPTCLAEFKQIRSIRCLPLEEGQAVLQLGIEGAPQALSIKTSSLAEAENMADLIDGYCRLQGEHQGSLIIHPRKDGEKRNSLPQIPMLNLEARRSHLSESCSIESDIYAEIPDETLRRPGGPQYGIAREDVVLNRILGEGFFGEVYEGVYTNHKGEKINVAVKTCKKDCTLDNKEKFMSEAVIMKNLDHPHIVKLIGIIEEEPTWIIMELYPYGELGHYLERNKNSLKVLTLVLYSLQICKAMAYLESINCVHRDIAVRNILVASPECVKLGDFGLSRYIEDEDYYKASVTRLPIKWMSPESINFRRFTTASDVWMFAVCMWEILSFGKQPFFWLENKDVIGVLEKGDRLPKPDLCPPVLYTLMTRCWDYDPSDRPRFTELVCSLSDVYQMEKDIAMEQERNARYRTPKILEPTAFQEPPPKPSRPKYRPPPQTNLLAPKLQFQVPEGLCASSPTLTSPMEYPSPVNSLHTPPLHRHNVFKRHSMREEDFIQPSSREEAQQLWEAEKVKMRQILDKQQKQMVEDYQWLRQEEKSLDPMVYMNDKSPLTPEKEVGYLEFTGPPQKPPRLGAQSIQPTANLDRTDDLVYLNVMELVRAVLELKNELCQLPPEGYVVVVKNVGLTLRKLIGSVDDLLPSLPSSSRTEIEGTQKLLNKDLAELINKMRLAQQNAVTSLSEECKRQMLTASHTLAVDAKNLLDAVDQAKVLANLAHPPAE
Chain of CaMKIIδ(h) (Q13557 whole entry): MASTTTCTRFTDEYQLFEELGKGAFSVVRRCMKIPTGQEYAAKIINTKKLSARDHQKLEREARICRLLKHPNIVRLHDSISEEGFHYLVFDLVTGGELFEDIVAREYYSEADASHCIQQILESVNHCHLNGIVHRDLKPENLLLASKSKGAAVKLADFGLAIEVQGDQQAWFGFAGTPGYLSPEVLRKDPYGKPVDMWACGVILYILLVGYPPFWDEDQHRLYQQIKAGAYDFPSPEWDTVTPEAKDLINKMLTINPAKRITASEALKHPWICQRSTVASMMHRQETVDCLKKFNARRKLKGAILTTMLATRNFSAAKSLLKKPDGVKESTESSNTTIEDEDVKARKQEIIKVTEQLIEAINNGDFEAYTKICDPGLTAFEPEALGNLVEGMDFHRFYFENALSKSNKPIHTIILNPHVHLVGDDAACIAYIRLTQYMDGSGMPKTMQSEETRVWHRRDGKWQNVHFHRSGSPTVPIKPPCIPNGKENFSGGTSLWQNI

With FAKLAARLYRKALARQLGVAA [MMI-0300], the “% activity” value in the test with NEK2(h) is listed as 78%; in the test with Rsk4(h), 90%; with Flt4(h), 83%; in the test with Ret(h), 140%; with MKK6(h), 48%; in the test with PhKγ2(h), 46%. For the same sequence, the “% activity” value in the test with Met(M1268T)(h) is given as 255%; with Pyk2(h), 47%; with MARK1(h), 132%; with PKCε(h), 79%; with CaMKIIδ(h), 1%; in the test with CaMKI(h), 1%.
“HRRIKAWLKKIKALARQLGVAA (Mammal) [MMI-0500]”: the “% activity” value stood at 0% in the test with NEK2(h); 29% with Rsk4(h); 73% with Flt4(h); 174% in the test with Ret(h); 18% with MKK6(h); 16% in the test with PhKγ2(h). For the same sequence, the “% activity” value with Met(M1268T)(h) was 239%; with Met(Y1248D)(h), 218%; with Pyk2(h) it was 46%; with MARK1(h), 110%; with PKCε(h) it was 23%; in the test with CaMKIIδ(h), 1%. Also, the “% activity” value with CaMKI(h) was -1%.
As for KAFAKLAARLYRKALARQLGVAA [MMI-0400], the “% activity” value in the test with NEK2(h) came out at 61%; with Rsk4(h) it was 91%; with Flt4(h), 89%; with Ret(h), 145%; with MKK6(h), 44%; in the test with PhKγ2(h) it was 38%. The “% activity” value with Met(M1268T)(h) is 265%; with Met(Y1248D)(h), 31%; in the test with Pyk2(h), 34%; with MARK1(h), 120%; with PKCε(h) it was 59%; with CaMKIIδ(h), 2%. The “% activity” value with CaMKI(h) amounted to 0%.
Regarding YARAAARQARAKALARQLGVAA [MMI-0100], the “% activity” value on Rsk4(h) turned out to be 99%; on Flt4(h), 135%; on Ret(h), 108%; on Met(Y1248D)(h), 87%.
For “YARAAARQARAKALNRQLGVA (Mammal) [MMI-0200]”, the “% activity” value in the test with NEK2(h) is listed as 97%; with Rsk4(h), 125%; in the test with Ret(h), 96%; with MKK6(h) it was 98%; with PhKγ2(h), 86%; with Met(M1268T)(h), 143%. For the same sequence, the “% activity” value with Met(Y1248D)(h) worked out at 118%; with Pyk2(h), 127%; in the test with PKCε(h) it was 98%; in the test with CaMKIIδ(h) it was 2%; in the test with CaMKI(h), 21%.
